{"source": "paper PMC3181147", "about": "(Structure (London, England : 1993), 2010)", "target": "the molecule itself", "experiment": "AUC", "data": [{"protein": "phosphorylated intracellular domain of PknB_(1-330) (kinase domain and juxtamembrane linker) (domain or fragment) MTTPSHLSDRYELGEILGFGGMSEVHLARDLRLHRDVAVKVLRADLARDPSFYLRFRREAQNAAALNHPAIVAVYDTGEAETPAGPLPYIVMEYVDGVTLRDIVHTEGPMTPKRAIEVIADACQALNFSHQNGIIHRDVKPANIMISATNAVKVMDFGIARAIADSGNSVTQTAAVIGTAQYLSPEQARGDSVDARSDVYSLGCVLYEVLTGEPPFTGDSPVSVAYQHVREDPIPPSARHEGLSADLDAVVLKALAKNPENRYQTAAEMRADLVRVHNGEPPEAPKVLTDAERTSLLSSAAGNLSGPRTDPLPRQDLDDTDRDRSIGSVG", "values": [{"measurement": "Kd", "value": "~2900", "unit": "µM"}]}]}
